Measurements taken from publication PMC3553987.

Target: c-Myc;Max isoform (human;human, UniProt P01106;P61244 16-454;2-160, |)
Assay: TIRF-PBM

Sequence of c-Myc;Max isoform (P01106 16-454, chain 1 of 2): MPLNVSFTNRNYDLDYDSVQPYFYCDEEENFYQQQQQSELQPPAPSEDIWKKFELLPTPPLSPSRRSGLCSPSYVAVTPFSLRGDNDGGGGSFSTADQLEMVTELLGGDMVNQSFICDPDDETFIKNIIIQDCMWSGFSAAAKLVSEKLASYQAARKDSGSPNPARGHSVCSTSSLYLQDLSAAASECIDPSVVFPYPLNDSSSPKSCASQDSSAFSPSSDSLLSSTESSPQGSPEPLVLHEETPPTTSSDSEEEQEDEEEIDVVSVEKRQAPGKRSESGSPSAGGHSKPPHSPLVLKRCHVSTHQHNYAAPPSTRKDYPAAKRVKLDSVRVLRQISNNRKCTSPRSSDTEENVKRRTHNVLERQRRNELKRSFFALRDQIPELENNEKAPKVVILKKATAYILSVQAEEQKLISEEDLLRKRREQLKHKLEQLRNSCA
Sequence of c-Myc;Max isoform (P61244 2-160, chain 2 of 2): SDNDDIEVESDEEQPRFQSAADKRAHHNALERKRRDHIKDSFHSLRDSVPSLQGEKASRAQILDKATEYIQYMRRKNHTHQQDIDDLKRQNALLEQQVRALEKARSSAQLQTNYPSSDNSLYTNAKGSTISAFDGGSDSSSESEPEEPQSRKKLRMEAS

B1: sequence 7 (12 A repeat) (dsDNA)
DNA 1: GCTACGAGCGCAAAAAAAAAAAAATGATAGCAAGCTCAAGTCAATCGGTCC
DNA 2: GGACCGATTGACTTGAGCTTGCTATCATTTTTTTTTTTTTGCGCTCGTAGC
modifications: 5' amino on one strand, coupled to hydrogel
Q: Does B1 bind?
A: Result: binds
